Test results reported in PMC5906670, “Structural basis of epilepsy-related ligand–receptor complex LGI1–ADAM22” (Nature Communications, 2018).

B1: ADAM22 ECD-FLAG [human] / LGI1-His6 [human] (parent)
chain 1: SKRQLRRYPRNVEEETKYIELMIVNDHLMFKKHRLSVVHTNTYAKSVVNMADLIYKDQLKTRIVLVAMETWATDNKFAISENPLITLREFMKYRRDFIKEKSDAVHLFSGSQFESSRSGAAYIGGICSLLKGGGVNEFGKTDLMAVTLAQSLAHNIGIISDKRKLASGECKCEDTWSGCIMGDTGYYLPKKFTQCNIEEYHDFLNSGGGACLFNKPSKLLDPPECGNGFIETGEECDCGTPAECVLEGAECCKKCTLTQDSQCSDGLCCKKCKFQPMGTVCREAVNDCDIRETCSGNSSQCAPNIHKMDGYSCDGVQGICFGGRCKTRDRQCKYIWGQKVTASDKYCYEKLNIEGTEKGNCGKDKDTWIQCNKRDVLCGYLLCTNIGNIPRLGELDGEITSTLVVQQGRTLNCSGGHVKLEEDVDLGYVEDGTPCGPQMMCLEHRCLPVASFNFSTCLSSKEGTICSGNGVCSNELKCVCNRHWIGSDCNTYFPHNDDAKTGITLSG
chain 2: KKPAKPKCPAVCTCTKDNALCENARSIPRTVPPDVISLSFVRSGFTEISEGSFLFTPSLQLLLFTSNSFDVISDDAFIGLPHLEYLFIENNNIKSISRHTFRGLKSLIHLSLANNNLQTLPKDIFKGLDSLTNVDLRGNSFNCDCKLKWLVEWLGHTNATVEDIYCEGPPEYKKRKINSLSSKDFDCIITEFAKSQDLPYQSLSIDTFSYLNDEYVVIAQPFTGKCIFLEWDHVEKTFRNYDNITGTSTVVCKPIVIETQLYVIVAQLFGGSHIYKRDSFANKFIKIQDIEILKIRKPNDIETFKIENNWYFVVADSSKAGFTTIYKWNGNGFYSHQSLHAWYRDTDVEYLEIVRTPQTLRTPHLILSSSSQRPVIYQWNKATQLFTNQTDIPNMEDVYAVKHFSVKGDVYICLTRFIGDSKVMKWGGSSFQDIQRMPSRGSMVFQPLQINNYQYAILGSDYSFTQVYNWDAEKAKFVKFQELNVQAPRSFTHVSINKRNFLFASSFKGNTQIYKHVIVDLSA

Variants of: B1
Assay: pull-down
Conditions: with LGI1-His6 [human]; Ni-NTA agarose; proteins secreted from HEK293T cells; n = 5 independent experiments; read off a plot

percent of parent | Variant
37 % of WT | chain 1 SKRQLRRYPRNVEEETKYIELMIVNDHLMFKKHRLSVVHTNTYAKSVVNMADLIYKDQLKTRIVLVAMETWATDNKFAISENPLITLREFMKYRRDFIKEKSDAVHLFSGSQFESSRSGAAYIGGICSLLKGGGVNEFGKTDLMAVTLAQSLAHNIGIISDKRKLASGECKCEDTWSGCIMGATGYYLPKKFTQCNIEEYHDFLNSGGGACLFNKPSKLLDPPECGNGFIETGEECDCGTPAECVLEGAECCKKCTLTQDSQCSDGLCCKKCKFQPMGTVCREAVNDCDIRETCSGNSSQCAPNIHKMDGYSCDGVQGICFGGRCKTRDRQCKYIWGQKVTASDKYCYEKLNIEGTEKGNCGKDKDTWIQCNKRDVLCGYLLCTNIGNIPRLGELDGEITSTLVVQQGRTLNCSGGHVKLEEDVDLGYVEDGTPCGPQMMCLEHRCLPVASFNFSTCLSSKEGTICSGNGVCSNELKCVCNRHWIGSDCNTYFPHNDDAKTGITLSG [chain 1 D183A]
4 % of WT | chain 1 SKRQLRRYPRNVEEETKYIELMIVNDHLMFKKHRLSVVHTNTYAKSVVNMADLIYKDQLKTRIVLVAMETWATDNKFAISENPLITLREFMKYRRDFIKEKSDAVHLFSGSQFESSRSGAAYIGGICSLLKGGGVNEFGKTDLMAVTLAQSLAHNIGIISDKRKLASGECKCEDTWSGCIMGDTGAYLPKKFTQCNIEEYHDFLNSGGGACLFNKPSKLLDPPECGNGFIETGEECDCGTPAECVLEGAECCKKCTLTQDSQCSDGLCCKKCKFQPMGTVCREAVNDCDIRETCSGNSSQCAPNIHKMDGYSCDGVQGICFGGRCKTRDRQCKYIWGQKVTASDKYCYEKLNIEGTEKGNCGKDKDTWIQCNKRDVLCGYLLCTNIGNIPRLGELDGEITSTLVVQQGRTLNCSGGHVKLEEDVDLGYVEDGTPCGPQMMCLEHRCLPVASFNFSTCLSSKEGTICSGNGVCSNELKCVCNRHWIGSDCNTYFPHNDDAKTGITLSG [chain 1 Y186A]
